From the supplement of paper PMC9170038 come the findings set out here.

The series deals with MS2 coat protein. Nature of the series: apparent KD of MS2 coat protein; designed switch direction (-1 OFF switch, 1 ON switch): -1; higher = weaker reporter binding. In outline:
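Designed RNA switches were transcribed on Illumina chips by stalled E. coli RNA polymerase and titrated with SNAP-549-labelled MS2 coat protein from 0.7 or 1.5 nM, doubling to 3 µM. Step length ran from 0.8–1.5 h at the lowest concentration to 10–20 min at the highest. The apparent KD is the median over clusters for each design, from curve-fitted normalised cluster fluorescence.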

Setting [1] is: input ligand: microRNA oligo, concentration not stated.
[2] abbreviates: Eterna round: R95, input ligand: FMN 200 uM.
The mark [3] stands for this setting: Eterna round: R95, input ligand: microRNA oligo, concentration not stated.
The mark [4] stands for this setting: Eterna round: R95, input ligand: none.

Regarding “UCACGGGAUUGAGGAUAUAUAUUAAUUUUUUUUAUAGAAGGCAAAAUGUUAGAUUAUUCACUAUACAUGAGGAUCACCCAUGUU [JR_ExcBG1_Sub076] (Eterna round: R96, puzzle: Exclusion NG 1)”, the “apparent KD of MS2 coat protein” value under setting [1] was determined as 0.0182 µM.
“UGGUAGUGAGGAUAUCCAAUAUAUGACAUGAGGAUCACCCAUGUUUCCACUCGUACCUCCGGAGAAGGCACAUGGU [Ex5 #54] (Eterna round: R97, puzzle: Exclusion 5)”: the “apparent KD of MS2 coat protein” value runs as follows: (input ligand: FMN 200 uM) 0.0676 µM; (input ligand: none) 0.0619 µM.
On to “AAUAAGGUAGGAUAUACAUGAGGAUCACCCAUGUCCCACCCGUUACCUAUGACCAUAUGUAGAAGGACCAAUAA [Exy#1] (Eterna round: R97, puzzle: Exclusion 3)”, for which the “apparent KD of MS2 coat protein” value is, setting by setting: (input ligand: FMN 200 uM) 0.02 µM; (input ligand: none) 0.0213 µM.
Take “GGUCAACGUGUGAGGAUAUGUCAACCCUGUGGAAAGCAGAAGGCACAUGAGGAUCACCCAUGUAAUAAGAAAAC [Soasois] (Eterna round: R97, puzzle: Brourd's mod of Exclusion 4)”: the “apparent KD of MS2 coat protein” value turned out to be 0.0299 µM (input ligand: FMN 200 uM) and 0.262 µM (input ligand: none).
As for “UUGACGUCGUCAGGAUAUAGUUUUAAUGUCAUGCGUAUGUUCUUACAUGAGGAUCACCCAUGUCGCUAGAAGGGACUAAAGAUU [JR_ExcNG2_Sub011] (Eterna round: R96, puzzle: Exclusion NG 2)”, the “apparent KD of MS2 coat protein” value worked out at 0.0276 µM (input ligand: FMN 200 uM), 0.0235 µM under setting [1] and 0.0347 µM (input ligand: none).
For “GUCAGCUCGUCAGGAUAUACAUGCGUGCUUCGGCACGUAUGAUAGAUCACAUGAGGAUCACCCAUGUAGAAGGGACGAGCUGAU [ENG2/4-B2] (Eterna round: R96, puzzle: Exclusion NG 2)”, the “apparent KD of MS2 coat protein” value is 0.0166 µM (input ligand: FMN 200 uM), 0.01 µM under setting [1] and 0.0144 µM (input ligand: none).
Regarding “CUGGUCCGAGGAUAUAUUAUGUGAAACAUGAGGAUCACCCAUGUAAUAUGAUGGAUGAAAAUAGAAGGCGGACUAG [Mat - Exclusion 5 - JL mod - D30] (puzzle: Exclusion 5)”, the “apparent KD of MS2 coat protein” value runs as follows: under setting [2], 0.0362 µM; under setting [3], 0.0435 µM; under setting [4], 0.061 µM.
Turning to “CUAAUAGCAGCAGGAUAUCUCACAUGAGGAUCACCCAUGUGGGACCGCCACCUCGUGUGUAAAGAAGAGAAGGGCUCGCACUCC [Eternabot solution 6] (Eterna round: R96, puzzle: Exclusion NG 2)”, the “apparent KD of MS2 coat protein” value was found to be 0.0376 µM (input ligand: FMN 200 uM), 0.0128 µM under setting [1] and 0.0261 µM (input ligand: none).
With “AGAAGUAGAAACCGAUCCUACAUGAGGAUCACCCAUGUAGCAAGACGUGCACGCGAAGCUCGUCAGACUACCAGAAG [solution 24] (Eterna round: R96, puzzle: Sensor v2, turn-off variant)”, the “apparent KD of MS2 coat protein” value is, setting by setting: (input ligand: FMN 200 uM) 0.462 µM; under setting [1], 0.288 µM; (input ligand: none) 0.345 µM.
As to “AUUCCUCCUGUUAGGAUAUGCAUCGGGCUUCCGCAGCAGAAGGAACAUGAGGAUCACCCAUGUCAAAUAAAAUC (Eterna round: R97, puzzle: Brourd's mod of Exclusion 4)”, the “apparent KD of MS2 coat protein” value runs as follows: (input ligand: FMN 200 uM) 0.231 µM; (input ligand: none) 0.0302 µM.
For the sequence “CCCACAAGCUUUUUGCUCGACAUGAGGAUCACCCAUGUUGAAUGGGUUAUGUGUGUGUGAUACAUAUAUAUGGUCCU [-25.6, -50.5 kcal, A 23%] (Eterna round: R97, puzzle: Sensor, turn-off variant 1)”, the “apparent KD of MS2 coat protein” value was found to be 0.201 µM (input ligand: FMN 200 uM) and 0.207 µM (input ligand: none).
As to “AGGUGACAUGAGGAUCACCCAUGUAAGGAUAUACGGUUAGUGGAGAGAGGGAAAAGAGGUAGAAGGUACGGAGC [JR_Exclu1_Sub057] (puzzle: Exclusion 1)”, the “apparent KD of MS2 coat protein” value under setting [3] is 0.156 µM.
With “AAUAAUCGGGCCUUCCUAUUACAUGAGGAUCACCCAUGUCUCGAGGAUAUACCGACGCACGGUCCGUAGAAGGCGAGACCACAC [Esusbied] (Eterna round: R96, puzzle: Exclusion NG 3)”, the “apparent KD of MS2 coat protein” value is, setting by setting: (input ligand: FMN 200 uM) 0.141 µM; under setting [1], 0.0145 µM; (input ligand: none) 0.0247 µM.
As to “GAUCGACAUGAGGAUCACCCAUGUCAGGAUAUCGUCACUGGAGCCUCGGCUCCAGUGACGAGAAGGGACAUAAU [E1/13-A2] (Eterna round: R97, puzzle: Exclusion 1)”, the “apparent KD of MS2 coat protein” value runs as follows: (input ligand: FMN 200 uM) 0.0468 µM; (input ligand: none) 0.0394 µM.
“GUUGGAUGAGGAUAUCGAGGUUAGUACAUGAGGAUCACCCAUGUUAUCCAGGUGUCGGUUCGAGAAGGCAUUGGAC [LRO-Ex5-14] (Eterna round: R96, puzzle: Exclusion 5)”: the “apparent KD of MS2 coat protein” value (input ligand: FMN 200 uM) came to 0.104 µM, the “apparent KD of MS2 coat protein” value under setting [1] came to 0.0278 µM and the “apparent KD of MS2 coat protein” value (input ligand: none) was determined as 0.0347 µM.
“UCUCGACAUGAGGAUCACCCAUGUCAGGAUAUUGUGUUUGAGGUUUUUUACCUUUUGACAAGAAGGGAUGUGUG [LRO-Excl1-22] (puzzle: Exclusion 1)”: the “apparent KD of MS2 coat protein” value under setting [3] is 0.0286 µM.
On to “AUUUUGUCAGGAUAUGAUUAGUAGGACGAGAGUGCUACUACUUAGAAGGGACAUGAGGAUCACCCAUGUAUUCC [Bring Us a Shrubbery-08] (puzzle: Exclusion 4)”, for which, under setting [3], the “apparent KD of MS2 coat protein” value amounted to 0.015 µM.
“UAAACAAGCUUAAGAUCCUACAUGAGGAUCACCCAUGUGCUCGUCUUAUAAGGUACUGUGACGAAAGUCACGGUACC [JL TOV1 3.06] (Eterna round: R97, puzzle: Sensor, turn-off variant 1)”: the “apparent KD of MS2 coat protein” value came to 0.226 µM (input ligand: FMN 200 uM) and 0.194 µM (input ligand: none).
Turning to “GAUUGACAUGAGGAUCACCCAUGUGAGGAUAUCGGCUGGACCGUGUUGGCUUGCUUUUCGAGAAGGCGCAUAGG [Exclusion 1 V49] (puzzle: Exclusion 1)”, the “apparent KD of MS2 coat protein” value turned out to be 0.055 µM under setting [2], 0.0368 µM under setting [3] and 0.035 µM under setting [4].
With “CCAAACUGAGGAUAUACAUGAGGAUCACCCAUGUGCCCGCGGUCAUAUGUAGCCUAGUGUAGAAGGCAGAAAAC [Rearle] (Eterna round: R96, puzzle: Exclusion 3)”, the “apparent KD of MS2 coat protein” value (input ligand: FMN 200 uM) was determined as 0.0249 µM, the “apparent KD of MS2 coat protein” value under setting [1] is 0.0418 µM and the “apparent KD of MS2 coat protein” value (input ligand: none) is 0.0509 µM.
Consider “ACCAUAGAUGUAGGAUAUCCAUGAAGAUAACAAGGAGAAGGACAUGAGGAUCACCCAUGUAAGUAUUAUGAAUGUAGCGACAGC [Meechl Ex NG1] (Eterna round: R96, puzzle: Exclusion NG 1)”, for which the “apparent KD of MS2 coat protein” value turned out to be 0.0821 µM (input ligand: FMN 200 uM), 0.034 µM under setting [1] and 0.0595 µM (input ligand: none).
Consider “AGCUGUGGCCGAGGAUAUCUGAAACUCAAAACCGAAAUAUAAUCGGACAUGAGGAUCACCCAUGUAGAGAAGGCGGUCUCAGCA [Eli eng2 - 079] (Eterna round: R96, puzzle: Exclusion NG 2)”, for which the “apparent KD of MS2 coat protein” value under setting [1] stood at 0.126 µM.
For the sequence “UGCGGUAGAGGAUAUACGUAGAAUUAGAUUCAUGUAAAACUACAUGAGGAUCACCCAUGUAGAAGGCUAUCGCU [JL-ex2-4.31 Eli mod] (Eterna round: R97, puzzle: Exclusion 2)”, the “apparent KD of MS2 coat protein” value (input ligand: FMN 200 uM) came to 0.102 µM and the “apparent KD of MS2 coat protein” value (input ligand: none) came out at 0.0193 µM.
“CCGGAAAUACAGGAUAUAGGAGUCGAUAGACUCCUAGAAGGGUAUACAUGAGGAUCACCCAUGUUCCUUACCGG [Fiskers Ex 6 - 72] (puzzle: Exclusion 6)”: under setting [3], the “apparent KD of MS2 coat protein” value was determined as 0.0369 µM.
